The record followed here is patent US20140087995A1 (published 2014).

Numbered stars: 1 amine (or outer) side, 2 acyl side, 3 side chain; on linkers, the order of the positions; unused ones are H or OH. Bridge positions count the residues as written; N and C are the ends. * marks the point of attachment. C20 diacid = O=C(O)CCCCCCCCCCCCCCCCCCC(=O)*; γGlu = O=C(O)[C@H](CCC(=O)[*:2])N[*:1]

Assay [1] has as its target T1, human calcitonin receptor (human, UniProt P30988 25-474).
T1 sequence (looked up): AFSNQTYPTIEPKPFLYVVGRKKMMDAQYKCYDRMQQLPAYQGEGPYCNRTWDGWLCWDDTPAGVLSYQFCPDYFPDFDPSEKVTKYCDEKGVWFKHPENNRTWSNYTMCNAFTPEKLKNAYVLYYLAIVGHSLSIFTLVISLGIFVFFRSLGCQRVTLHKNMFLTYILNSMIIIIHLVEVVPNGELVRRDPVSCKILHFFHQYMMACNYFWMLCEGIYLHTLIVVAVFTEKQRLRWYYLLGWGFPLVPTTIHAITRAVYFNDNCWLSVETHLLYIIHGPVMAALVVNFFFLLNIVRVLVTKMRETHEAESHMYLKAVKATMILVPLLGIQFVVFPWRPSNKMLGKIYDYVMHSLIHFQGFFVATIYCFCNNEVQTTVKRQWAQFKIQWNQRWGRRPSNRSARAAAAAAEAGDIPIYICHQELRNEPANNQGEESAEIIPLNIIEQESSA
Put plainly: cell-based or functional assay.

Assay [2] has as its target T2, human amylin 3(a) receptor (human calcitonin receptor plus RAMP-3) (human, UniProt P30988 25-474; O60896 24-148, limits assumed).
T2 sequence (looked up) 1: T1 sequence (looked up)
T2 sequence (looked up) 2: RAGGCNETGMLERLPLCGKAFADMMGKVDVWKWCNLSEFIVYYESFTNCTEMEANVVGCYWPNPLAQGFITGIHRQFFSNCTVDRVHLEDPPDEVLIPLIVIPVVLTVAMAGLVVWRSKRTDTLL
Kind of assay: cell-based or functional assay.

For assay [3], the target named is T2, human amylin 3(a) receptor (human …). Put plainly: SPA competition binding, displacement of 125I-rat amylin from membranes of Amylin 3(a)/CRE-luc BHK cells (Assay V). The gist of the method: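 Membranes from BHK Amylin 3(a)/CRE-luc cells (35 ng/μL final) were mixed with SPA beads and test compounds in 50 mM Hepes pH 7.4 with 1 mM CaCl2, 5 mM MgCl₂, 0.1% OA and 0.02% Tween20. Incubation ran 120 min at 25° C with shaking; IC₅₀ came from one-site competition fitting.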

B1: N^α1-[(4S)-4-carboxy-4-(19-carboxynonadecanoylamino)butanoyl]-[Glu14,Arg17,Pro21,Pro27,Pro29]-h-amylin (peptide)
peptide: {C20 diacid-γGlu}-KCNTATCATQRLAEFLRHSSPNFGAIPSPTNVGSNTY-NH2
modifications: disulfide 2-7
SMILES: CC[C@H](C)[C@H](NC(=O)[C@H](C)NC(=O)CNC(=O)[C@H](Cc1ccccc1)NC(=O)[C@H](CC(N)=O)NC(=O)[C@@H]1CCCN1C(=O)[C@H](CO)NC(=O)[C@H](CO)NC(=O)[C@H](Cc1c[nH]cn1)NC(=O)[C@H](CCCNC(=N)N)NC(=O)[C@H](CC(C)C)NC(=O)[C@H](Cc1ccccc1)NC(=O)[C@H](CCC(=O)O)NC(=O)[C@H](C)NC(=O)[C@H](CC(C)C)NC(=O)[C@H](CCCNC(=N)N)NC(=O)[C@H](CCC(N)=O)NC(=O)[C@@H](NC(=O)[C@H](C)NC(=O)[C@@H]1CSSC[C@H](NC(=O)[C@H](CCCCN)NC(=O)CC[C@H](NC(=O)CCCCCCCCCCCCCCCCCCC(=O)O)C(=O)O)C(=O)N[C@@H](CC(N)=O)C(=O)N[C@@H]([C@@H](C)O)C(=O)N[C@@H](C)C(=O)N[C@@H]([C@@H](C)O)C(=O)N1)[C@@H](C)O)C(=O)N1CCC[C@H]1C(=O)N[C@@H](CO)C(=O)N1CCC[C@H]1C(=O)N[C@H](C(=O)N[C@@H](CC(N)=O)C(=O)N[C@H](C(=O)NCC(=O)N[C@@H](CO)C(=O)N[C@@H](CC(N)=O)C(=O)N[C@H](C(=O)N[C@@H](Cc1ccc(O)cc1)C(N)=O)[C@@H](C)O)C(C)C)[C@@H](C)O
notes: also called compound 37
Take B1: in assay [1], the “hCTR funct. EC50” value is 0.372 nM. Further, in assay [2], the “Ratio hCT/hAmylin funct.” value was determined as 4 and the “hAmylin-R funct. EC50” value came to 0.092 nM. For the same molecule, in assay [3], the IC50 (usually the midpoint of a concentration-inhibition curve) was determined as 0.97 nM.
The like results for {C20 diacid-γGlu}-KCNTATCATQRLAEFLRHSSPNFGAILPSTNVGSETY-NH2 (disulfide 2-7, also called compound 33) were, in that order, 0.528 nM, 2.2, 0.243 nM and 0.915 nM.

B2: N^α1-[(4S)-4-carboxy-4-(19-carboxynonadecanoylamino)butanoyl]-[Glu14,Arg17,Pro21,Pro27,Pro34]-h-amylin (peptide)
peptide: {C20 diacid-γGlu}-KCNTATCATQRLAEFLRHSSPNFGAIPSSTNVGPNTY-NH2
modifications: disulfide 2-7
SMILES: CC[C@H](C)[C@H](NC(=O)[C@H](C)NC(=O)CNC(=O)[C@H](Cc1ccccc1)NC(=O)[C@H](CC(N)=O)NC(=O)[C@@H]1CCCN1C(=O)[C@H](CO)NC(=O)[C@H](CO)NC(=O)[C@H](Cc1c[nH]cn1)NC(=O)[C@H](CCCNC(=N)N)NC(=O)[C@H](CC(C)C)NC(=O)[C@H](Cc1ccccc1)NC(=O)[C@H](CCC(=O)O)NC(=O)[C@H](C)NC(=O)[C@H](CC(C)C)NC(=O)[C@H](CCCNC(=N)N)NC(=O)[C@H](CCC(N)=O)NC(=O)[C@@H](NC(=O)[C@H](C)NC(=O)[C@@H]1CSSC[C@H](NC(=O)[C@H](CCCCN)NC(=O)CC[C@H](NC(=O)CCCCCCCCCCCCCCCCCCC(=O)O)C(=O)O)C(=O)N[C@@H](CC(N)=O)C(=O)N[C@@H]([C@@H](C)O)C(=O)N[C@@H](C)C(=O)N[C@@H]([C@@H](C)O)C(=O)N1)[C@@H](C)O)C(=O)N1CCC[C@H]1C(=O)N[C@@H](CO)C(=O)N[C@@H](CO)C(=O)N[C@H](C(=O)N[C@@H](CC(N)=O)C(=O)N[C@H](C(=O)NCC(=O)N1CCC[C@H]1C(=O)N[C@@H](CC(N)=O)C(=O)N[C@H](C(=O)N[C@@H](Cc1ccc(O)cc1)C(N)=O)[C@@H](C)O)C(C)C)[C@@H](C)O
notes: also called compound 32
For B2, the “hCTR funct. EC50” value in assay [1] was determined as 0.327 nM. Moreover, in assay [2], the “Ratio hCT/hAmylin funct.” value came to 6.6 and the “hAmylin-R funct. EC50” value was determined as 0.05 nM. Moreover, in assay [3], the IC50 worked out at 0.1 nM.

B3: N^α1-[(4S)-4-carboxy-4-(19-carboxynonadecanoylamino)butanoyl]-[Glu14,Arg17,Pro21,Pro27,Pro37]-h-amylin (peptide)
peptide: {C20 diacid-γGlu}-KCNTATCATQRLAEFLRHSSPNFGAIPSSTNVGSNTP-NH2
modifications: disulfide 2-7
SMILES: CC[C@H](C)[C@H](NC(=O)[C@H](C)NC(=O)CNC(=O)[C@H](Cc1ccccc1)NC(=O)[C@H](CC(N)=O)NC(=O)[C@@H]1CCCN1C(=O)[C@H](CO)NC(=O)[C@H](CO)NC(=O)[C@H](Cc1c[nH]cn1)NC(=O)[C@H](CCCNC(=N)N)NC(=O)[C@H](CC(C)C)NC(=O)[C@H](Cc1ccccc1)NC(=O)[C@H](CCC(=O)O)NC(=O)[C@H](C)NC(=O)[C@H](CC(C)C)NC(=O)[C@H](CCCNC(=N)N)NC(=O)[C@H](CCC(N)=O)NC(=O)[C@@H](NC(=O)[C@H](C)NC(=O)[C@@H]1CSSC[C@H](NC(=O)[C@H](CCCCN)NC(=O)CC[C@H](NC(=O)CCCCCCCCCCCCCCCCCCC(=O)O)C(=O)O)C(=O)N[C@@H](CC(N)=O)C(=O)N[C@@H]([C@@H](C)O)C(=O)N[C@@H](C)C(=O)N[C@@H]([C@@H](C)O)C(=O)N1)[C@@H](C)O)C(=O)N1CCC[C@H]1C(=O)N[C@@H](CO)C(=O)N[C@@H](CO)C(=O)N[C@H](C(=O)N[C@@H](CC(N)=O)C(=O)N[C@H](C(=O)NCC(=O)N[C@@H](CO)C(=O)N[C@@H](CC(N)=O)C(=O)N[C@H](C(=O)N1CCC[C@H]1C(N)=O)[C@@H](C)O)C(C)C)[C@@H](C)O
notes: also called compound 8
On to B3, for which, in assay [1], the “hCTR funct. EC50” value was found to be 0.087 nM. Further, in assay [2], the “Ratio hCT/hAmylin funct.” value was 1.1 and the “hAmylin-R funct. EC50” value worked out at 0.082 nM. Moreover, the IC50 in assay [3] amounted to 0.072 nM.

B4: N^α1-[(4S)-4-carboxy-4-(19-carboxynonadecanoylamino)butanoyl]-[Glu14,Arg17,Pro21,Pro27,Pro31]-h-amylin (peptide)
peptide: {C20 diacid-γGlu}-KCNTATCATQRLAEFLRHSSPNFGAIPSSTPVGSNTY-NH2
modifications: disulfide 2-7
SMILES: CC[C@H](C)[C@H](NC(=O)[C@H](C)NC(=O)CNC(=O)[C@H](Cc1ccccc1)NC(=O)[C@H](CC(N)=O)NC(=O)[C@@H]1CCCN1C(=O)[C@H](CO)NC(=O)[C@H](CO)NC(=O)[C@H](Cc1c[nH]cn1)NC(=O)[C@H](CCCNC(=N)N)NC(=O)[C@H](CC(C)C)NC(=O)[C@H](Cc1ccccc1)NC(=O)[C@H](CCC(=O)O)NC(=O)[C@H](C)NC(=O)[C@H](CC(C)C)NC(=O)[C@H](CCCNC(=N)N)NC(=O)[C@H](CCC(N)=O)NC(=O)[C@@H](NC(=O)[C@H](C)NC(=O)[C@@H]1CSSC[C@H](NC(=O)[C@H](CCCCN)NC(=O)CC[C@H](NC(=O)CCCCCCCCCCCCCCCCCCC(=O)O)C(=O)O)C(=O)N[C@@H](CC(N)=O)C(=O)N[C@@H]([C@@H](C)O)C(=O)N[C@@H](C)C(=O)N[C@@H]([C@@H](C)O)C(=O)N1)[C@@H](C)O)C(=O)N1CCC[C@H]1C(=O)N[C@@H](CO)C(=O)N[C@@H](CO)C(=O)N[C@H](C(=O)N1CCC[C@H]1C(=O)N[C@H](C(=O)NCC(=O)N[C@@H](CO)C(=O)N[C@@H](CC(N)=O)C(=O)N[C@H](C(=O)N[C@@H](Cc1ccc(O)cc1)C(N)=O)[C@@H](C)O)C(C)C)[C@@H](C)O
notes: also called compound 31
Turning to B4, in assay [1], the “hCTR funct. EC50” value was 0.717 nM. Also, in assay [2], the “Ratio hCT/hAmylin funct.” value came to 6.4 and the “hAmylin-R funct. EC50” value is 0.112 nM. Further, the IC50 in assay [3] was determined as 0.204 nM.

B5: N^α1-[(4S)-4-carboxy-4-[[(4S)-4-carboxy-4-(19-carboxynonadecanoylamino)butanoyl]amino]butanoyl]-[Glu14,Arg17,Pro21,Pro27,Pro37]-h-amylin (peptide)
peptide: {C20 diacid-γGlu-γGlu}-KCNTATCATQRLAEFLRHSSPNFGAIPSSTNVGSNTP-NH2
modifications: disulfide 2-7
SMILES: CC[C@H](C)[C@H](NC(=O)[C@H](C)NC(=O)CNC(=O)[C@H](Cc1ccccc1)NC(=O)[C@H](CC(N)=O)NC(=O)[C@@H]1CCCN1C(=O)[C@H](CO)NC(=O)[C@H](CO)NC(=O)[C@H](Cc1c[nH]cn1)NC(=O)[C@H](CCCNC(=N)N)NC(=O)[C@H](CC(C)C)NC(=O)[C@H](Cc1ccccc1)NC(=O)[C@H](CCC(=O)O)NC(=O)[C@H](C)NC(=O)[C@H](CC(C)C)NC(=O)[C@H](CCCNC(=N)N)NC(=O)[C@H](CCC(N)=O)NC(=O)[C@@H](NC(=O)[C@H](C)NC(=O)[C@@H]1CSSC[C@H](NC(=O)[C@H](CCCCN)NC(=O)CC[C@H](NC(=O)CC[C@H](NC(=O)CCCCCCCCCCCCCCCCCCC(=O)O)C(=O)O)C(=O)O)C(=O)N[C@@H](CC(N)=O)C(=O)N[C@@H]([C@@H](C)O)C(=O)N[C@@H](C)C(=O)N[C@@H]([C@@H](C)O)C(=O)N1)[C@@H](C)O)C(=O)N1CCC[C@H]1C(=O)N[C@@H](CO)C(=O)N[C@@H](CO)C(=O)N[C@H](C(=O)N[C@@H](CC(N)=O)C(=O)N[C@H](C(=O)NCC(=O)N[C@@H](CO)C(=O)N[C@@H](CC(N)=O)C(=O)N[C@H](C(=O)N1CCC[C@H]1C(N)=O)[C@@H](C)O)C(C)C)[C@@H](C)O
notes: also called compound 14
Consider B5, for which the “hCTR funct. EC50” value in assay [1] came out at 0.238 nM. In assay [2], the “Ratio hCT/hAmylin funct.” value is 1.6 and the “hAmylin-R funct. EC50” value turned out to be 0.146 nM. The half-maximal inhibitory concentration (IC50) in assay [3] was found to be 0.196 nM.
